The results in this text go back to patent publication US20250304913A1.

Experiment [1] addresses OT-I TCR. Briefly: cell-based or functional assay.
The target in experiment [2] is OT-I TCR. Briefly: cell-based or functional assay. This is another data set of the same source.

As for “OVA-MHCI Bait-CD3Zeta Fully Live CAR (peptide-MHC)”, in experiment [1], the proportion of surviving OT-I cells after 18 hours of co-culture was determined as 32.1%, the proportion of surviving OT-I cells after 36 hours of co-culture amounted to 19.5% and the proportion of surviving OT-I cells after 60 hours of co-culture came to 0.69%.

B1: OVA-MHCI Bait-SIINFEKL CAR (peptide-MHC)
chain: SIINFEKLGGGGSGGGGSGGGGSIQKTPQIQVYSRHPPENGKPNILNCYVTQFHPPHIEIQMLENGKKIPKVEMSDMSFSKDWSFYILAHTEFTPTETDTYACRVKHASMAEPKTVYWDRDMGGGGSGGGGSGGGGSGGGGSGPHSLRYFVTAVSRPGLGEPRYMEVGYVDDTEFVRFDSDAENPRYEPRARWMEQEGPEYWERETQKAKGNEQSFRVDLRTLLGYYNQSKGGSHTIQVISGCEVGSDGRLLRGYQQYAYDGCDYIALNEDLKTWTAADMAALITKHKWEQAGEAERLRAYLEGTCVEWLRRYLKNGNATLLRTDSPKAHVTHHSRPEDKVTLRCWALGFYPADITLTWQLNGEELIQDMELVETRPAGDGTFQKWASVVVPLGKEQYYTCHVYHQGLPEPLTLRWEIEFMYPPPYLDNERSNGTIIHIKEKHLCHTQSSPKLFWALVVVAGVLFCYGLLVTVALCVIWTNSRRNRGGQSDYMNMTPRRPGLTRKPYQPYAPARDFAAYRPRAKFSRSAETAANLQDPNQLFNELNLGRREEFDVLEKKRARDPEMGGKQQRRRNPQEGVYNALQKDKMAEAYSEIGTKGERRRGKGHDGLFQGLSTATKDTFDALHMQTLAPR
For the molecule B1, in experiment [2], the IFN-gamma positive bait CAR T cells in the presence of OT-I target cells is 11.4%, the IL-2 positive bait CAR T cells in the presence of OT-I cells was 14.9%, the OT-I cells remaining in the population after 48 hours of co-culture (competitive survival assay) came to 5.01% and the activation of bait CAR T cells (expression of CD107a) in the presence of OT-I T cells turned out to be 24.8%. In addition, the degranulation of OT-I T cells (CD107a-positive) in co-culture with bait CAR T cells in experiment [2] was found to be 80.4%.
